Measured values reported in patent US20150005238A1 (PAION DEUTSCHLAND, published 2015).

target: thrombin (APC / TAFI activation assays of Examples V, VI and VIII; source not stated for the assay); test: cell-based or functional assay

Row | Binder | cofactor activity (APC assay)
1 | TME with deletion of Gln387 (receptor) CSVENGGCEHACNAIPGAPRCQCPAGAALQADGRSCTASATQSCNDLCEHFCVPNPDQPGSYSCMCETGYRLAADQHRCEDVDDCILEPSPCPQRCVNTQGGFECHCYPNYDLVDGECVEPVDPCFRANCEYQCQPLNQTSYLCVCAEGFAPIPHEPHRCMFCNQTACPADCDPNTQASCECPEGYILDDGFICTDIDECENGGFCSGVCHNLPGTFECICGPDSALARHIGTDC | < 10 % of wild type TME
2 | TME with deletion of Met388 (receptor) CSVENGGCEHACNAIPGAPRCQCPAGAALQADGRSCTASATQSCNDLCEHFCVPNPDQPGSYSCMCETGYRLAADQHRCEDVDDCILEPSPCPQRCVNTQGGFECHCYPNYDLVDGECVEPVDPCFRANCEYQCQPLNQTSYLCVCAEGFAPIPHEPHRCQFCNQTACPADCDPNTQASCECPEGYILDDGFICTDIDECENGGFCSGVCHNLPGTFECICGPDSALARHIGTDC | < 10 % of wild type TME
3 | TME with deletion of Phe389 (receptor) CSVENGGCEHACNAIPGAPRCQCPAGAALQADGRSCTASATQSCNDLCEHFCVPNPDQPGSYSCMCETGYRLAADQHRCEDVDDCILEPSPCPQRCVNTQGGFECHCYPNYDLVDGECVEPVDPCFRANCEYQCQPLNQTSYLCVCAEGFAPIPHEPHRCQMCNQTACPADCDPNTQASCECPEGYILDDGFICTDIDECENGGFCSGVCHNLPGTFECICGPDSALARHIGTDC | < 10 % of wild type TME
4 | TME with Ala inserted between 386 and 387 (receptor) CSVENGGCEHACNAIPGAPRCQCPAGAALQADGRSCTASATQSCNDLCEHFCVPNPDQPGSYSCMCETGYRLAADQHRCEDVDDCILEPSPCPQRCVNTQGGFECHCYPNYDLVDGECVEPVDPCFRANCEYQCQPLNQTSYLCVCAEGFAPIPHEPHRCAQMFCNQTACPADCDPNTQASCECPEGYILDDGFICTDIDECENGGFCSGVCHNLPGTFECICGPDSALARHIGTDC | < 10 % of wild type TME
5 | TME with Ala inserted between 389 and 390 (receptor) CSVENGGCEHACNAIPGAPRCQCPAGAALQADGRSCTASATQSCNDLCEHFCVPNPDQPGSYSCMCETGYRLAADQHRCEDVDDCILEPSPCPQRCVNTQGGFECHCYPNYDLVDGECVEPVDPCFRANCEYQCQPLNQTSYLCVCAEGFAPIPHEPHRCQMFACNQTACPADCDPNTQASCECPEGYILDDGFICTDIDECENGGFCSGVCHNLPGTFECICGPDSALARHIGTDC | < 10 % of wild type TME
6 | TME with Ala inserted between 387 and 388 (receptor) CSVENGGCEHACNAIPGAPRCQCPAGAALQADGRSCTASATQSCNDLCEHFCVPNPDQPGSYSCMCETGYRLAADQHRCEDVDDCILEPSPCPQRCVNTQGGFECHCYPNYDLVDGECVEPVDPCFRANCEYQCQPLNQTSYLCVCAEGFAPIPHEPHRCQAMFCNQTACPADCDPNTQASCECPEGYILDDGFICTDIDECENGGFCSGVCHNLPGTFECICGPDSALARHIGTDC | < 10 % of wild type TME
7 | TME with Ala inserted between 388 and 389 (receptor) CSVENGGCEHACNAIPGAPRCQCPAGAALQADGRSCTASATQSCNDLCEHFCVPNPDQPGSYSCMCETGYRLAADQHRCEDVDDCILEPSPCPQRCVNTQGGFECHCYPNYDLVDGECVEPVDPCFRANCEYQCQPLNQTSYLCVCAEGFAPIPHEPHRCQMAFCNQTACPADCDPNTQASCECPEGYILDDGFICTDIDECENGGFCSGVCHNLPGTFECICGPDSALARHIGTDC | < 10 % of wild type TME

target: human thrombin (human, UniProt P00734 328-622); test: equilibrium binding titration in solution; perturbation of DAPA fluorescence (20 nM thrombin, 20 nM DAPA, Solulin titrated), nonlinear regression
Method: The binding of thrombin to thrombomodulin was measured as an equilibrium binding assay. A solution containing thrombin (20 nM), thrombomodulin (1.54 μM), and DAPA (20 nM, dansylarginine N-3-(ethyl-1,5-pentanediyl)amide, a fluorescent, reversible thrombin inhibitor) in 0.02 M Tris-HCl, 0.15 M NaCl, 5.0 mM CaCl₂, 0.01% Tween 80, pH 7.4, was added in small successive aliquots to an otherwise identical solution that lacked thrombomodulin. The additions were performed in a cuvette fitted with a magnetic stirrer in the sample compartment of a Perkin-Elmer model LS50B spectrofluorimeter. Intensity values were continuously recorded with excitation and emission wavelengths of 280 and 545 nm, respectively. A 430-nm cut-off filter was used in the emission beam. The intensity of fluorescence, I, was assumed to be the sum of intensities from thrombin-DAPA (T·D) and thrombin-thrombomodulin-DAPA (T·TM·D). That is, I=i₁·[T·D]+i₂·[T·TM·D], where i₁ and i₂ are the coefficients of fluorescence for T·D and T·TM·D (since excitation was at 280 nm, the emission from free DAPA was negligible).

Row | Binder | Kd
8 | Recombinant soluble thrombomodulin (Solulin) (receptor, Obtained from PAION; also called sTM; recombinant human soluble thrombomodulin) EPQPGGSQCVEHDCFALYPGPATFLNASQICDGLRGHLMTVRSSVAADVISLLLNGDGGVGRRRLWIGLQLPPGCGDPKRLGPLRGFQWVTGDNNTSYSRWARLDLNGAPLCGPLCVAVSAAEATVPSEPIWEEQQCEVKADGFLCEFHFPATCRPLAVEPGAAAAAVSITYGTPFAARGADFQALPVGSSAAVAPLGLQLMCTAPPGAVQGHWAREAPGAWDCSVENGGCEHACNAIPGAPRCQCPAGAALQADGRSCTASATQSCNDLCEHFCVPNPDQPGSYSCMCETGYRLAADQHRCEDVDDCILEPSPCPQRCVNTQGGFECHCYPNYDLVDGECVEPVDPCFRANCEYQCQPLNQTSYLCVCAEGFAPIPHEPHRCQLFCNQTACPADCDPNTQASCECPEGYILDDGFICTDIDECENGGFCSGVCHNLPGTFECICGPDSALAGQIGTDCDSGKVDGGDSGAGEPPPSPTPGSTLTPP | 23 nM
